# Experimental data taken from patent publication US20090263792A1, “ATOPIC DERMATITIS MARKER AND TECHNIQUE OF USING THE SAME” (FANCL CORPORATION, priority 2005, published 2009).
# B1: lactoferrin (protein, UniProt P02788 20-710, looked up)
# Lactotransferrin: GRRRSVQWCAVSQPEATKCFQWQRNMRKVRGPPVSCIKRDSPIQCIQAIAENRADAVTLDGGFIYEAGLAPYKLRPVAAEVYGTERQPRTHYYAVAVVKKGGSFQLNELQGLKSCHTGLRRTAGWNVPIGTLRPFLNWTGPPEPIEAAVARFFSASCVPGADKGQFPNLCRLCAGTGENKCAFSSQEPYFSYSGAFKCLRDGAGDVAFIRESTVFEDLSDEAERDEYELLCPDNTRKPVDKFKDCHLARVPSHAVVARSVNGKEDAIWNLLRQAQEKFGKDKSPKFQLFGSPSGQKDLLFKDSAIGFSRVPPRIDSGLYLGSGYFTAIQNLRKSEEEVAARRARVVWCAVGEQELRKCNQWSGLSEGSVTCSSASTTEDCIALVLKGEADAMSLDGGYVYTAGKCGLVPVLAENYKSQQSSDPDPNCVDRPVEGYLAVAVVRRSDTSLTWNSVKGKKSCHTAVDRTAGWNIPMGLLFNQTGSCKFDEYFSQSCAPGSDPRSNLCALCIGDEQGENKCVPNSNERYYGYTGAFRCLAENAGDVAFVKDVTVLQNTDGNNNEAWAKDLKLADFALLCLDGKRKPVTEARSCHLAMAPNHAVVSRMDKVERLKQVLLHQQAKFGRNGSDCPDKFCLFQSETKNLLFNDNTECLARLHGKTTYEKYLGPQYVAGITNLKKCSTSPLLEACEFLRK
# notes: a protein with a molecular weight of 80,000 found in saliva and blood and bonding with Fe ions
# Assays:
# [1] = tested on: skin tissues of NC/Nga mice modeling atopic dermatitis; experiment: Western blotting of protein expression in skin tissues of mice modeling atopic dermatitis; format: in vivo, mouse
# Protocol: (§1) Six-week-old male mice (NC/Nga mice) modeling atopic dermatitis were obtained (NC/Nga slc, Sankyo Labo Service Corporation) and raised under conventional conditions. […] In view of the above, a 0.1% DNFB solution (haptene) was applied to the skin of the mice on both ears as well as the right and left sides of the back once a week for a total of 4 weeks.
# (§2) To relieve inflammation caused by atopic dermatitis, lactoferrin was dissolved in drinking water at 1 μg/ml and administered.
# (§3) Three mice were tested under each of the following experimental conditions: (1) haptene (−)/lactoferrin (−), (2) haptene (−)/lactoferrin (+), (3) haptene (+)/lactoferrin (−), and (4) haptene (+)/lactoferrin (+).
# Skin tissues were cut out from mice treated with haptene/lactoferrin for 4 weeks and the tissue strips were cut into small pieces with a knife, after which the tissue pieces were transferred into a centrifugal tube whose tare weight had been measured beforehand, to measure the tissue weight. Different buffers were added by different amounts, such as tissue weight×0.85 mg Urea, tissue weight×0.1 μl 1.5% SDS, tissue weight×0.1 μl 8.5% Triton X-100, and tissue weight×0.05 μl 2-ME, and homogenized using a HG30 homogenizer (Hitachi, Ltd.). […] Protein content was quantified using the dot blotting method.
# SDS-PAGE was performed with a Laemmli Tris-Glycin system using a Western blotting sample. […] If HRP labeled anti-mouse IgG (Amersham Bioscience, Inc.) (1:1000 dilution), HRP labeled anti-rabbit IgG (Amersham Bioscience, Inc.) (1:1000 dilution), HRP labeled anti-rat IgG (Amersham Bioscience, Inc.) (1:1000 dilution) or HRP labeled anti-goat IgG (Santa Cruz Biotechnology, Inc.) (1:1000 dilution) was used as the secondary antibody, an enhanced chemiluminescence (ECL) kit (Amersham Bioscience, Inc.) was used to implement detection by means of fluorescence color development. […]
# [2] = tested on: NC/Nga mice modeling atopic dermatitis; experiment: Haptene (DNFB) treatment of mice modeling atopic dermatitis, observation of skin inflammation; format: in vivo, mouse; settings: haptene (0.1% DNFB, once a week, 4 weeks) applied; lactoferrin 1 μg/ml in drinking water; compared to haptene-treated mice not given lactoferrin
# Protocol: as §1, §2, §3
# When raised with haptene treatment in a conventional environment, the mice (NC/Nga mice) modeling atopic dermatitis used in this study developed a macroscopically noticeable dermatitis very similar to atopic dermatitis after 4 weeks of haptene treatment. In this study, the mice were fed with drinking water mixed with lactoferrin, a substance shown to be effective on atopic dermatitis (a protein with a molecular weight of 80,000 found in saliva and blood and bonding with Fe ions).
molecule,measurement,setting,value
B1,"amount of expression of Annexin II, Enolase 1 and PARK7 (all other than FABP-4) (FIG. 5)","[1]; haptene-treated mice also given lactoferrin, to a level close to non-haptene-treated control mice",recovered
same,"amounts of expression of Galectin-1, -4, -7 and -8 (FIG. 3)","[1]; haptene-treated mice also given lactoferrin, to levels close to non-haptene-treated control mice",recovered
same,"Moesin, Ezrin and Radixin severed types of low molecular weight (50-kDa), increased by haptene treatment (FIG. 4)","[1]; haptene-treated mice, lactoferrin administration",did not decrease
same,"inflammation on the back (skin condition, FIG. 1)",[2],less inflammation
